Assay [1] addresses ERGIC-53 ΔH34 mutant with a C-terminal FLAG (human) (UniProt P49257). The assay is described as follows: cryo-EM structure; ERGIC-53 ΔH34-MCFD2 complex, 1.7 mg/ml.
The target in assay [2] is T1, full-length human ERGIC-53 with a C-terminal PA tag (human), P49257.
T1 chain: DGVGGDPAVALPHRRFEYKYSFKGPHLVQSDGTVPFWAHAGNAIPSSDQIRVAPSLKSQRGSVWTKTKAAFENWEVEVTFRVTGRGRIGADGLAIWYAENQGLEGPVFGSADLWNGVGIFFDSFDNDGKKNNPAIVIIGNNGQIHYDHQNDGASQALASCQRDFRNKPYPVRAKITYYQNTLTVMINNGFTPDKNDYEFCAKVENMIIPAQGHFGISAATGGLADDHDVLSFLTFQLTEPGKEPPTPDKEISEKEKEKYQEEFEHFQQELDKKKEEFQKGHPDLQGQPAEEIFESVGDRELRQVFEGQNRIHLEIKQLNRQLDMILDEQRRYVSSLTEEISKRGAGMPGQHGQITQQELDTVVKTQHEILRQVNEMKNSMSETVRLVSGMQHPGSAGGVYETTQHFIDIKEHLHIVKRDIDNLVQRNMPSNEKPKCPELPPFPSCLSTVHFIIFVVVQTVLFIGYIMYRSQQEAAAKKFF
Nature of the assay: SEC-MALS; ERGIC-53 at weakly acidic Golgi pH (pH 6.5). To be noted: remark: other sources report otherwise. A general note: SEC sorts molecules by how far they enter the pores of the column.

The target in assay [3] is T1, full-length human ERGIC-53 with a …. The assay is described as follows: cryo-EM structure; full-length ERGIC-53 with MCFD2, 4-5 mg/ml in GDN with 3 mM fluorinated Fos-Choline-8; head region forms A and B, four substates, and full-length map. To be noted: remark: other sources report otherwise.
The target is the same in assay [4]. Nature of the assay: SEC-MALS; Superdex 200 Increase 3.2/300; 20 mM Tris-HCl pH 7.5, 150 mM NaCl, 10 mM CaCl2, 0.02% GDN; samples 1.6-1.7 mg/ml; conjugate analysis (MALS-UV-RI); ERGIC-53 alone and its complex with MCFD2. To be noted: remark: other sources report otherwise.
In assay [5] the target is T2, full-length human ERGIC-53 with a C-terminal PA tag (human, UniProt P49257 31-510).
T2 construct: ERGIC-53 (LMAN1), human, full length; cDNA subcloned from a HeLa cDNA library; Eluted from the beads with PA peptide; no step that removes the tag is described; Treated with 1 mM diamide before SEC; mixture of covalent (disulfide-linked) and noncovalent tetramers; The CRD is numbered from residue 31, so the signal peptide is probably cut off in the cells (surmised); also called LMAN1; P58
T2 sequence (looked up): T1 chain
Described as above. The note with it: both partners purified.

Consider “ERGIC-53 ΔH34 mutant with a C-terminal FLAG (from UniProt P49257 31-510) (receptor)”, for which, in assay [1], the stoichiometry N turned out to be 4.

B1: full-length human ERGIC-53 with a C-terminal PA tag, P49257 31-510 (receptor)
chain: T1 chain
As to B1, the stoichiometry N in assay [2], in assay [3] and in assay [4] was 4 throughout.

B2: human MCFD2 lumen domain (residues 27-146) (domain or fragment, UniProt Q8NI22 27-146, looked up)
chain: EEPAASFSQPGSMGLDKNTVHDQEHIMEHLEGVINKPEAEMSPQELQLHYFKMHDYDGNNLLDGLELSTAITHVHKEEGSEQAPLMSEDELINIIDGVLRDDDKNNDGYIDYAEFAKSLQ
notes: MCFD2, human, lumen domain, residues 27-146, in pET15b; Thrombin cleavage of the pET15b His tag probably leaves a few vector residues at the N-terminus (surmised); also called multiple coagulation factor deficiency 2; source: E. coli BL21 (DE3), purified (Ni-NTA, MonoQ, thrombin cleavage, SEC); not shown: His tag, N-terminal, cleaved
Consider B2, for which the “stoichiometry N” value in assay [5] was determined as 1.

For orientation: stoichiometry N means a count of units in the complex or per binding partner.
